In patent publication US20110077204A1, “Agent for Targeted Drug Delivery To Cerebral Neurons” (Kagoshima University, priority 2006, published 2011):

Assays:
raphe nuclei = conditions: in vivo; cited from earlier work
brain neurons [1] = conditions: rat, in vivo
brain neurons [2] = conditions: rat, in vivo; remark: listed apart in the source
brain parenchyma = conditions: injected directly into the cerebrospinal fluid; cited from earlier work

In the case of `N=C(N)c1ccc(/C=C/c2ccc(C(=N)N)cc2O)cc1` [fluorogold], the “Appearance of label in raphe nuclei” value (raphe nuclei) is given as “the label appeared in the raphe nuclei”.

In the case of cholera toxin, the “Appearance of label in raphe nuclei” value (raphe nuclei) is listed as “the label appeared in the raphe nuclei”.

In the case of cholera toxin B-subunit [CTB], the “Non-specific infiltration through brain surface or ventricle surface” value (brain neurons [1]) is reported as “does not infiltrate indiscriminately through the brain surface or the ventricle surface”, the “Uptake by cerebellar Purkinje cells” value (brain neurons [1]) is reported as “accumulated in the neurons of the raphe nuclei and Purkinje cells” and the “Uptake by other cell populations (cerebral neocortex, cerebral paleocortex, hypothalamus, thalamus, brainstem)” value (brain neurons [1]) is reported as “incorporated”. For the same molecule, the “Uptake by raphe nuclei neurons” value (brain neurons [1]) was “accumulated in the neurons of the raphe nuclei and Purkinje cells”.

For horseradish peroxidase [HRP], the “Detectable level of uptake of HRP label by neurons” value (brain neurons [2]) was “not confirmed”.

B1: glial cell line-derived neurotrophic factor (protein, UniProt P39905 78-211, looked up)
Glial cell line-derived …: SPDKQMAVLPRRERNRQAAAANPENSRGKGRRGQRGKNRGCVLTAIHLNVTDLGLGYETKEELIFRYCSGSCDAAETTYDKILKNLSRNRRLVSDKVGQACCRPIAFDDDLSFLDDNLVYHILRKHSAKRCGCI
notes: neurotrophic factor, literature report
In the case of B1, the “Effect on dopaminergic condition” value (brain parenchyma) is listed as “can improve the dopaminergic condition” and the “Uptake by brain parenchyma” value (brain parenchyma) is listed as “incorporated into brain parenchyma”.
